According to US20230137562A1, “TAU AGGREGATION INHIBITORS” (priority 2017, published 2023):
Several values for one entry are separate records, joined by “and”; a condition that tells them apart may be missing. Equal entries are not always repeated. Square brackets hold non-standard residues; d marks the D form. Ends that are not written are not given here. NMeI = CC[C@H](C)[C@H](NC)C(=O)O; hArg = N=C(N)NCCCC[C@H](N)C(=O)O; Orn = NCCC[C@H](N)C(=O)O

T1: Ac-VQIINK-NH2
T1 peptide: Ac-VQIINK-NH2


Biological target: His-Tau40P301L Tau (UniProt P10636-8 1-441)
Sequence (P10636 other isoform, or with tags, fused parts or gaps limits assumed): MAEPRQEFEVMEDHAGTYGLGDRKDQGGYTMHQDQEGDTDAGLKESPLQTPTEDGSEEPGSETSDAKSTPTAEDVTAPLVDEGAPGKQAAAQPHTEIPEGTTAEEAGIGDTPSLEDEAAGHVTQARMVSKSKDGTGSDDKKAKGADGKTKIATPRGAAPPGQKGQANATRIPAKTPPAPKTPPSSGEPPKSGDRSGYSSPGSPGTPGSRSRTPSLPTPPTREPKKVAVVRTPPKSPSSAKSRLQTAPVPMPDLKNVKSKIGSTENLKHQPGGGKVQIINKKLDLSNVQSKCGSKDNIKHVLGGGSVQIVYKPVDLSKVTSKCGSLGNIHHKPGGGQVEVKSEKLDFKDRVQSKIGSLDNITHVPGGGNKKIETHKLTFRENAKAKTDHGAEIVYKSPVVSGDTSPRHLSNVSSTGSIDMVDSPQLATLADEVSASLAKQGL
Test: cell-based or functional assay

Binder	IC50 (µM), Tau40 assay (ThT)
LFYLRLR	7.13 µM
FRIRIRF	6.01 µM
ILRYWH	2.49 µM
WYRVRGRVW	6.4 µM and 6.5 µM
WRILIRYW	14.6 µM
RIRIWAW	8.38 µM
RIRIWIW	0.84 µM and 1.38 µM
WWIRIRYWH	2.16 µM and 2.3 µM
LWWIRIRYW	1.59 µM and 1.8 µM
RIRLYWW	1.74 µM
RIRIWRW	2.39 µM
WY[Orn]L[Orn]I[Orn]W [WYOLOIOW]	5.2 µM
HWKIIWYR	2.39 µM
RIRLYIW	2.12 µM
LRIWIRYW	1.71 µM
HWWIRIRYW	3.11 µM
WEIRIRW	11.1 µM
RIRLWYW	8.01 µM
WRIFIRYW	7.67 µM
WRIRLRGW	1.74 µM and 1.91 µM
RIWIRYWW	2.28 µM
RIRIWYW	5.51 µM
RIRAWIW	14.6 µM

Binder	IC50 (µM), Tau40 assay (ThT)
RIWIYWFR	0.55 µM
RIRIRIW	2.89 µM
WRLRLRW	0.23 µM
W[Orn]I[Orn]I[Orn]W [WOIOIOW]	1.17 µM
WRIEIRW	4.84 µM
RIRIWKW	5.71 µM
WRAWIRYW	2.59 µM
IRIWLW	4.08 µM
W[hArg]I[hArg]I[hArg]W [W(hR)I(hR)I(hR)W]	6.13 µM
WRIWARYW	2.95 µM
WRLWIHWW	2.96 µM
WRIWIRAW	3.54 µM
WRIWLYWR	1.69 µM
WR[NMeI]RIRW [WR(NMe)IRIRW]	1.48 µM
WRIAIRW	4.01 µM
WRINIRYW	7.45 µM
YRIRLRY	1.08 µM
WRIWIRYL	4.09 µM
YKLHIRHW	5.72 µM
FRIWIRYW	2.12 µM
WRIEIRYW	12 µM
RIRRWIW	4.55 µM
WRVWGWVRW	1.81 µM and 1.85 µM

Biological target: T1, Ac-VQIINK-NH2
Test: cell-based or functional assay

Binder	IC50 (µM), VQIINK Inhibition (ThT) [µM]
IRLIVW	3.01
RIRIWIW	2.38
IRIWVW	2.43
RIWLRVW	4.09
WRIWLWYR	2.7
WRLRLRW	2.22
WRIWIRYW	1.89
IRLWLW	1.27
RIRIWLW	1.93
